Columns and labels:
[1] = target: Cse4-NCP (Cse4 containing nucleosome core particle) (budding yeast) (UniProt P36012); assay: cross-linking
[2] = target: Ame1/Okp1 complex (budding yeast, UniProt P38313;P53298); assay: pull-down
[3] = target: Mif2* (Mif2-6xHis-6xFlag wild type, dephosphorylated and in vitro phosphorylated by Cdc5) (budding yeast, UniProt P35201 1-549); assay: pull-down
[4] = target: T1, Dsn1/Nsl1 (budding yeast, UniProt P40568;Q12143); assay: SEC
T1 sequence 1: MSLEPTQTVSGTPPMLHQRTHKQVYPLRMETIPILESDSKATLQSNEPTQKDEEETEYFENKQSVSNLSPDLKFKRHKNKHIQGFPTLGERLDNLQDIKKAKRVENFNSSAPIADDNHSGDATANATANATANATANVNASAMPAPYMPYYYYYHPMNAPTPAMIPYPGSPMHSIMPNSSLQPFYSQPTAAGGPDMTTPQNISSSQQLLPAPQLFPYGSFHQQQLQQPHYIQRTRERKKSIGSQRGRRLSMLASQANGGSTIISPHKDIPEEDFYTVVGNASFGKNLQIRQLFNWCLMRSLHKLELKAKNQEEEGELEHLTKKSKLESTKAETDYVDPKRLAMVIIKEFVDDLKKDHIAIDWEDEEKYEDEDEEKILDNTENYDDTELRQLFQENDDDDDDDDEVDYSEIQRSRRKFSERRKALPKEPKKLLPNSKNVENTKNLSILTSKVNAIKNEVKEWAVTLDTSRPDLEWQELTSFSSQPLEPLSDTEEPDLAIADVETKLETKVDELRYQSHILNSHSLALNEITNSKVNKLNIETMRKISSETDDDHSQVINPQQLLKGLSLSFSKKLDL
T1 sequence 2: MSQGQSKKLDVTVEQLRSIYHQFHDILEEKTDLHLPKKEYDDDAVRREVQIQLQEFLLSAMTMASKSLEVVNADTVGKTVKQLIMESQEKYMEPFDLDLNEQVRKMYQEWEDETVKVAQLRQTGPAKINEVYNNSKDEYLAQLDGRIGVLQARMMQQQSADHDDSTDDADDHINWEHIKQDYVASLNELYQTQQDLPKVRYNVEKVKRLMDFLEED

[5] = target: Spc24/25 complex (budding yeast, UniProt Q04477;P40014); assay: cross-linking
Chain of Spc24/25 complex (Q04477 whole entry, chain 1 of 2): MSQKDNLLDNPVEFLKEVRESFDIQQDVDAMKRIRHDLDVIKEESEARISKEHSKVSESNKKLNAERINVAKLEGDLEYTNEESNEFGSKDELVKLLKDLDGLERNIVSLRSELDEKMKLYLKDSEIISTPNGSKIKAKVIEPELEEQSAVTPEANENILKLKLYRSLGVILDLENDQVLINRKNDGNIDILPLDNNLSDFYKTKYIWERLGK
Chain of Spc24/25 complex (P40014 whole entry, chain 2 of 2): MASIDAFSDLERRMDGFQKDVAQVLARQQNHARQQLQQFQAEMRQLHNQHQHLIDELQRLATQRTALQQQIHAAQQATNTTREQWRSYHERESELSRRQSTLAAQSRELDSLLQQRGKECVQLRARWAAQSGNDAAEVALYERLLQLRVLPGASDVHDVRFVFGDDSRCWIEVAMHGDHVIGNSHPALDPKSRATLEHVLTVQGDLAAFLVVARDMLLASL

Chain of Ame1/Okp1 complex (P38313 whole entry, chain 1 of 2): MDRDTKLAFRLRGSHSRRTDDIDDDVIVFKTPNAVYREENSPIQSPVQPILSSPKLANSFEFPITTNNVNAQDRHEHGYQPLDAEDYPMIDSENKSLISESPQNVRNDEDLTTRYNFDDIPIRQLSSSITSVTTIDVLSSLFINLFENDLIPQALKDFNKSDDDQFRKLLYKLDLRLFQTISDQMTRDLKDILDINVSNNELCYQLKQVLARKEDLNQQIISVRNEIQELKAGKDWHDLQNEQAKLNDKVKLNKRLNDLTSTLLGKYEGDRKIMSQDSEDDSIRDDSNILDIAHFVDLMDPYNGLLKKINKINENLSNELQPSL
Chain of Ame1/Okp1 complex (P53298 whole entry, chain 2 of 2): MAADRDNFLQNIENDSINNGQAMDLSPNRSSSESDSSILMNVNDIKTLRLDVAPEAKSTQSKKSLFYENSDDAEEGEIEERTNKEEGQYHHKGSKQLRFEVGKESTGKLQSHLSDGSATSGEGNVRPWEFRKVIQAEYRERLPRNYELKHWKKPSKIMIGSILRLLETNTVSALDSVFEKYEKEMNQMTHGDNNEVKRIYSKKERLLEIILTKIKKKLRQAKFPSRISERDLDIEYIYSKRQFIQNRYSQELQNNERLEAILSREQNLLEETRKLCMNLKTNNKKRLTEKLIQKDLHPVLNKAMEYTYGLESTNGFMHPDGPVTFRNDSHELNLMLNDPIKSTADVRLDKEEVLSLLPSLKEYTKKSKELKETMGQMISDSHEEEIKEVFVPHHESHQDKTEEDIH

Mif2* (Mif2-6xHis-6xFlag wild type, dephosphorylated and in vitro phosphorylated by Cdc5) (from UniProt P35201 1-549) (natural protein)
fold decrease of KD with MTW1c(Dsn1^S240D,S250D) against wild-type MTW1c [1]: 20 fold

B1: Mif2^Δ200-230 mutant, in vitro phosphorylated by Cdc5 (natural protein)
chain: MDYMKLGLKSRKTGIDVKQDIPKDEYSMENIDDFFKDDETSLISMRRKSRRKSSLFLPSTLNGDTKNVLPPFLQSYKSQDDEVVQSPSGKGDGSRRSSLLSHQSNFLSPANDFEPIEEEPEQEENDIRGNDFATPITQKLSKPTYKRKYSTRYSLDTSESPSVRLTPDRITNKNVYSDVPDLVADEDDDDRVNTSLNTSDSGSDSASDSDGDNTYQEVEEEAEVNTNDNEDDYIRRQASDVVRTDSIIDRNGLRKSTRVKVAPLQYWRNEKIVYKRKSNKPVLDIDKIVTYDESEDEEEILAAQRRKKQKKKPTPTRPYNYVPTGRPRGRPKKDPNAKENLIPEDPNEDIIERIESGGIENGEWLKHGILEANVKISDTKEETKDEIIAFAPNLSQTEQVKDTKDENFALEIMFDKHKEYFASGILKLPAISGQKKLSNSFRTYITFHVIQGIVEVTVCKNKFLSVKGSTFQIPAFNEYAIANRGNDEAKMFFVQVTVSEDANDDNDKELDSTFDTFG
binding result [2]: binds

B2: Mtw1/Nnf1 (complex)
chain 1: MSAPTMRSTSILTEHLGYPPISLVDDIINAVNEIMYKCTAAMEKYLLSKSKIGEEDYGEEIKSGVAKLESLLENSVDKNFDKLELYVLRNVLRIPEEYLDANVFRLENQKDLVIVDENELKKSEEKLREKVNDVELAFKKNEMLLKRVTKVKRLLFTIRGFKQKLNELLKCKDDVQLQKILESLKPIDDTMTLLTDSLRKLYVDSESTSSTEEVEALLQRLKTNGKQNNKDFRTRYIDIRTNNVLRKLGLLGDKEDEKQSAKPDARTQAGDIVSIDIEEPQLDLLDDVL
chain 2: MVNSHGIRYIRLKQVFNRALDQSISKLQSWDKVSSCFPQYVNSKQGAINVANCQRQLTEFWTELCQREFKEIMEERNVEQKLNELDELILEAKERYTDRDQDEVNKGPAIDELSSKELVECHLYSQRMHAIHEIDERLAKVNEMNDQLAQELKDLETQVEVEKNEIGKMYDEYLGSHTDQPANVLLVQSLNDMVLELKENY
binding result [2]: binds | binding result [3]: binds | binding result [4]: binds

B3: Cnn1^60-84 peptide (peptide)
peptide: NKDPNEVRSFLQDLSQVLARKSQGN
Kd [5]: 2600 nM
